Assay results from FireProtDB (doi:10.1110/ps.8.7.1530).

Details: Escherichia coli (strain K12); pH 7.4; 22 °C; GdnHCl; Fluorescence; Sodium phosphate 20 mM; reversible: yes; whole UniProt chain shown

B1: PTS system mannose-specific EIIAB component wild type, P69797 (protein)
chain: MTIAIVIGTHGWAAEQLLKTAEMLLGEQENVGWIDFVPGENAETLIEKYNAQLAKLDTTKGVLFLVDTWGGSPFNAASRIVVDKEHYEVIAGVNIPMLVETLMARDDDPSFDELVALAVETGREGVKALKAKPVEKAAPAPAAAAPKAAPTPAKPMGPNDYMVIGLARIDDRLIHGQVATRWTKETNVSRIIVVSDEVAADTVRKTLLTQVAPPGVTAHVVDVAKMIRVYNNPKYAGERVMLLFTNPTDVERLVEGGVKITSVNVGGMAFRQGKTQVNNAVSVDEKDIEAFKKLNARGIELEVRKVSTDPKLKMMDLISKIDK
Which “denaturant midpoint (higher = more stable)” value does the source give for B1 here?
The value was 2.3 M.

And the unfolding free energy?
Its unfolding free energy is 10.5 kcal/mol.
